The values below come from article PMC5451165, “Cellular levels of Grb2 and cytoskeleton stability are correlated in a neurodegenerative scenario” (Disease Models & Mechanisms, 2017).

Details in all cases: partners not purified
Experiment [1] addresses T1, Grb2, endogenous in mouse brain (mouse (endogenous in mouse brain), UniProt Q60631 1-217).
T1 construct: Grb2, endogenous in mouse brain (APP/PS1 and WT mice), precipitated with an anti-Grb2 antibody; source: endogenous, protein extracted from paraffin-embedded brain sections of APP/PS1 (AD) and WT mice
As to the kind of experiment: co-IP; Grb2 pull down from protein extracted from paraffinized brain sections of AD (APP/PS1) and WT mice, probed with anti-NOX4 antibody.

The target in experiment [2] is T2, Growth factor receptor bound protein 2 (Grb2), endogenous in SHSY-5Y cells (human (endogenous in SHSY-5Y), UniProt P62993 1-217).
T2 construct: Grb2, endogenous in human neuroblastoma SHSY-5Y cells, precipitated with an anti-Grb2 antibody; source: endogenous, SHSY-5Y cell lysate
Put plainly: co-IP; IP for Grb2 from cell lysate, blot with anti-NOX4 (reverse: IP for NOX4, blot with anti-Grb2); cells under control (GFP, DMSO, DsRed), AD-inducing (AICD, Aβ, DsRed), reversal (AICD, Aβ, Grb2-DsRed) and Grb2 knock-down (U6-Grb2) conditions.

A further experiment has as its target T3, Grb2-DsRed construct (UniProt P62993 1-217).
T3 construct: Grb2 cloned into a DsRed-C1 vector; In the transfected cells endogenous Grb2 is present too, and the anti-Grb2 antibody would precipitate both; A C1 vector usually places the fluorescent protein at the N-terminus; source: SHSY-5Y, transiently transfected, in lysate
Described as above.

T1 sequence (Q60631 whole entry): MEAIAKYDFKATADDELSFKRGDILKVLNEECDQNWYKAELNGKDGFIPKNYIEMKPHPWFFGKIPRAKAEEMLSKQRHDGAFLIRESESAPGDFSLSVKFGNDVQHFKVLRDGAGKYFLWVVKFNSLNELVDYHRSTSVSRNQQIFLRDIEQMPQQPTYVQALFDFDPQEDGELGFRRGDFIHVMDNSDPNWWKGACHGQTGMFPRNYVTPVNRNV
T2 sequence (P62993 whole entry): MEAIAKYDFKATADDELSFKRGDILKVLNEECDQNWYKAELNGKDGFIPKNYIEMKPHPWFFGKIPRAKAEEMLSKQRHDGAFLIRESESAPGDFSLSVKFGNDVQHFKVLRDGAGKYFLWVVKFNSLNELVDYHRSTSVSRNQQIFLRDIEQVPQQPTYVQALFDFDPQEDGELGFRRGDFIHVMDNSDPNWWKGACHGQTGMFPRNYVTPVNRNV
T3 sequence (P62993 whole entry): as above

B1: NOX4, endogenous in mouse brain (natural protein, mouse (endogenous in mouse brain), UniProt Q9JHI8 1-578, looked up)
chain: MAVSWRSWLANEGVKHLCLLIWLSLNVLLFWKTFLLYNQGPEYYYIHQMLGLGLCLSRASASVLNLNCSLILLPMCRTVLAYLRGSQKVPSRRTRRLLDKSKTLHITCGVTICIFSGVHVAAHLVNALNFSVNYSEDFLELNAARYQNEDPRKLLFTTIPGLTGVCMVVVLFLMVTASTYAIRVSNYDIFWYTHNLFFVFYMLLLLHVSGGLLKYQTNVDTHPPGCISLNQTSSQNMSIPDYVSEHFHGSLPRGFSKLEDRYQKTLVKICLEEPKFQAHFPQTWIWISGPLCLYCAERLYRCIRSNKPVTIISVINHPSDVMELRMIKENFKARPGQYIILHCPSVSALENHPFTLTMCPTETKATFGVHFKVVGDWTERFRDLLLPPSSQDSEILPFIHSRNYPKLYIDGPFGSPFEESLNYEVSLCVAGGIGVTPFASILNTLLDDWKPYKLRRLYFIWVCRDIQSFQWFADLLCVLHNKFWQENRPDFVNIQLYLSQTDGIQKIIGEKYHTLNSRLFIGRPRWKLLFDEIAKCNRGKTVGVFCCGPSSISKTLHSLSNRNNSYGTKFEYNKESFS
notes: NOX4, endogenous in mouse brain (APP/PS1 and WT mice), detected with an anti-NOX4 antibody; source: endogenous, protein extracted from paraffin-embedded brain sections of APP/PS1 (AD) and WT mice
For B1, in experiment [1], the “fold change of the co-precipitated interaction, AD mouse brain relative to wild type” value was 1.49 fold.

B2: NOX4, endogenous in SHSY-5Y cells (natural protein, human (endogenous in SHSY-5Y), UniProt Q9NPH5 1-578, looked up)
chain: MAVSWRSWLANEGVKHLCLFIWLSMNVLLFWKTFLLYNQGPEYHYLHQMLGLGLCLSRASASVLNLNCSLILLPMCRTLLAYLRGSQKVPSRRTRRLLDKSRTFHITCGVTICIFSGVHVAAHLVNALNFSVNYSEDFVELNAARYRDEDPRKLLFTTVPGLTGVCMVVVLFLMITASTYAIRVSNYDIFWYTHNLFFVFYMLLTLHVSGGLLKYQTNLDTHPPGCISLNRTSSQNISLPEYFSEHFHEPFPEGFSKPAEFTQHKFVKICMEEPRFQANFPQTWLWISGPLCLYCAERLYRYIRSNKPVTIISVMSHPSDVMEIRMVKENFKARPGQYITLHCPSVSALENHPFTLTMCPTETKATFGVHLKIVGDWTERFRDLLLPPSSQDSEILPFIQSRNYPKLYIDGPFGSPFEESLNYEVSLCVAGGIGVTPFASILNTLLDDWKPYKLRRLYFIWVCRDIQSFRWFADLLCMLHNKFWQENRPDYVNIQLYLSQTDGIQKIIGEKYHALNSRLFIGRPRWKLLFDEIAKYNRGKTVGVFCCGPNSLSKTLHKLSNQNNSYGTRFEYNKESFS
notes: NOX4, endogenous in human neuroblastoma SHSY-5Y cells, detected with an anti-NOX4 antibody; source: endogenous, SHSY-5Y cell lysate
As for B2, the “fold change of the co-precipitated interaction, AD conditions (AICD + Aβ) relative to control” value in experiment [2] was 1.42 fold. Also, the “fold change of the co-precipitated interaction, reversal condition (AICD + Aβ + Grb2-DsRed) relative to control” value with Grb2-DsRed construct amounted to 2.18 fold.
